Our source for the band intensity (AU) values is publication PMC7031854.

Experiment [1] has as its target GST-tagged lamprey γ-synuclein NTD (lamprey). Kind of experiment: pull-down; direct binding: 50-100 μg GST-tagged protein as bait, 100 μg purified recombinant bovine Hsc70 or truncation, without nucleotides; Western blot, band intensity in AU. For orientation: Immunoblotting shows a protein as a band on a membrane.
Experiment [2] shares this target. Kind of experiment: pull-down; 50-100 μg GST-tagged protein as bait, 1-5 mg rat brain extract in HKET buffer (25 mM HEPES K+, 150 mM KCl, 1 mM EDTA, 1% Triton X-100, pH 7.4); bound proteins detected by Western blot, band intensity in AU.
Experiment [3] addresses GST-tagged human α-synuclein NTD (a.a. 1-102) (human) (UniProt P37840). Kind of experiment: pull-down; 50-100 μg GST-tagged protein as bait, 1-5 mg lamprey CNS (brain and spinal cord) extract in HKET buffer; bound Hsc70 detected by Western blot, band intensity in AU.
Experiment [4] concerns the target GST-tagged human α-synuclein (full length, wild type) (human) (UniProt P37840). The experiment is described as above.

Turning to “His-tagged recombinant bovine Hsc70 (from UniProt P19120 1-650) (natural protein)”, the band intensity (AU) in experiment [1] amounted to 62.8 AU.
In experiment [2], “Hsc70 from rat brain extracts (from UniProt P63018 1-646) (natural protein)” registered a band intensity (AU) of 153 AU.
With “endogenous Hsc70 from lamprey brain and spinal cord extracts (natural protein)”, the band intensity (AU) came out at 154 AU in experiment [3] and 106 AU in experiment [4].
